Data on ten molecules can be found in article PMC3589125 (Structure (London, England : 1993), 2012).

Data set [1] deals with T1, JNK3α1 (Homo sapiens, UniProt P53779). The experiment in a line: FRET displacement of labeled JIP1 peptide, JNK3α1. It is filed as binding. The following applies: FRET IC50 for displacement of labeled JIP1 peptide, Inactive JNK3α1.
The target of the next data set is Active JNK1β1 (UniProt P45983-3 1-384, phosphorylated in the activation loop by incubation with active MKK4 and MKK7). The experiment in a line: FRET or BRET. In general terms: In BRET a luciferase serves as donor, and the signal depends on an acceptor being close.
The next data set concerns the target Inactive JNK1β1 (UniProt P45983-3 1-384). The data set can be described thus: FRET or BRET.
The next data set has as its target active JNK3α1 (39–422) (UniProt P53779).
Data set [2] addresses T1, JNK3α1. The experiment in a line: Km of protein substrates for JNK3α1. Format: biochemical. The following applies: read-out: Km for JNK3α1; protein substrate.
The target in the next data set is JNK3α1 (39–422) (UniProt P53779-2 39-422). The data set can be described thus: ITC. On the technique in general: In ITC the heat of successive injections is recorded.
In another data set the target is Inactive JNK3α1, P53779. The experiment in a line: FRET or BRET.

Peptide text beside a SMILES is read from it.

The term IC50 denotes the concentration at which inhibition is half-maximal. Lower therefore signals inhibition by little substance. A word on the Km: it is the concentration of substrate that gives half-maximal velocity. In general, Kd refers to the free concentration of one partner at which half of the binding sites on the other are occupied at equilibrium, for simple one-to-one binding. Read a low Kd as tighter binding.

On JNK3α1 [1], `CC(C)C[C@H](NC(=O)[C@H](CO)NC(=O)CNC(=O)[C@@H]1CCCN1C(=O)[C@H](CCCNC(=N)N)NC(=O)[C@@H](NC(=O)[C@@H](NC(=O)[C@H](C)N)C(C)C)C(C)C)C(=O)N[C@@H](CC(=O)O)C(=O)N[C@@H](CC(C)C)C(=O)N1CCC[C@H]1C(=O)O` [pepSAB] (H-AVVRPGSLDLP-OH) yielded an IC50 of 834 ± 105 µM.

Take `CC(C)C[C@H](NC(=O)[C@H](CC(N)=O)NC(=O)[C@H](CC(C)C)NC(=O)[C@@H](NC(=O)[C@@H](NC(=O)[C@@H]1CCCN1C(=O)[C@H](CCCN=C(N)N)NC(=O)[C@H](CCCCN)NC(=O)[C@@H]1CCCN1C(=O)[C@@H](N)CCCN=C(N)N)[C@@H](C)O)[C@@H](C)O)C(=O)N[C@@H](Cc1ccccc1)C(=O)O` [pepJIP] (H-RPKRPTTLNLF-OH): on JNK3α1 [1], the IC50 worked out at 1.7 ± 0.4 µM.

On to KHKHEMTLKFG [pepATF2Hu(46–56)], for which the IC50 with Active JNK1β1 was determined as 169 ± 2 µM; with Inactive JNK1β1, 350 ± 12 µM.

B1: His-SAB (1–390) (domain or fragment)
chain: MDAALKRSRSEEPAEILPPARDEEEEEEEGMEQGLEEEEEVDPRIQGELEKLNQSTDDINRRETELEDARQKFRSVLVEATVKLDELVKKIGKAVEDSKPYWEARRVARQAQLEAQKATQDFQRATEVLRAAKETISLAEQRLLEDDKRQFDSAWQEMLNHATQRVMEAEQTKTRSELVHKETAARYNAAMGRMRQLEKKLKRAINKSKPYFELKAKYYVQLEQLKKTVDDLQAKLTLAKGEYKMALKNLEMISDEIHERRRSSAMGPRGCGVGAEGSSTSVEDLPGSKPEPDAISVASEAFEDDSCSNFVSEDDSETQSVSSFSSGPTSPSEMPDQFPAVVRPGSLDLPSPVSLSEFGMMFPVLGPRSECSGASSPECEVERGDRAEGA
As to B1, the Km of SAB (1–390) as substrate of JNK3α1 in the data set with active JNK3α1 (39–422) turned out to be 0.77 µM.

B2: SAB (1–390): recombinant SAB protein substrate for JNK kinase assays (protein)
chain: B1 chain
modifications: left off: His, end not stated, kept
Consider B2, for which the Km with JNK3α1 [2] stood at 0.77 ± 0.09 µM.

The molecule RPKRPTTLNLF [pepJIPhu(157–167)] yielded a Kd with JNK3α1 (39–422) of 0.8 ± 0.1 µM. Also, the dH with JNK3α1 (39–422) is -7.65 kcal/mol. Moreover, the IC50 with Inactive JNK3α1, P53779 was 1.7 µM; with Active JNK1β1, 0.68 ± 0.02 µM; with Inactive JNK1β1, 2.5 ± 0.1 µM.

Consider RPKQPTTLNLF [JIP1 R160Q], for which, in the data set with JNK3α1 (39–422), the dissociation constant Kd came out at 32.1 ± 3.2 µM and the dH was -5.46 kcal/mol.

As to RPKRPGTLNLF [JIP1 T162G], in the data set with JNK3α1 (39–422), the Kd came to 4.9 ± 0.5 µM and the dH is -7.11 kcal/mol.

Consider RPKHPTTLNLF [JIP1 R160H], for which, in the data set with JNK3α1 (39–422), the Kd turned out to be 11.7 ± 1 µM and the dH was -6.71 kcal/mol.

For AVVRPGSLDLP [pepSABhu(40–350)], in the data set with JNK3α1 (39–422), binding was characterised by a dissociation constant (Kd) of 17.2 ± 0.6 µM. In addition, in the data set with JNK3α1 (39–422), the dH was -4.02 kcal/mol. Besides, the IC50 was found to be 834 µM with Inactive JNK3α1, P53779; 386 ± 10 µM in the data set with Active JNK1β1; 612 ± 21 µM with Inactive JNK1β1.
